Values quoted from earlier work in patent publication US20090145201A1, “METHODS AND APPARATUSES FOR REDUCING EFFECTS OF MOLECULE ADSORPTION WITHIN MICROFLUIDIC CHANNELS” (EKSIGENT TECHNOLOGIES, LLC, priority 2005, published 2009).

details: source: Cantor and Schimmel 1980, Biophysical Chemistry Part II

For `[Cl-].[Na+]` [NaCl, reference compound], the “Diffusion Coefficient” value is listed as about 1.5e−5 cm^2 · s^−1.

Point of comparison: `NCC(=O)O` [glycine, reference compound], “Diffusion Coefficient” value 9.33e−6 cm^2 · s^−1. Against it:
- OC[C@H]1O[C@@](CO)(O[C@H]2O[C@H](CO)[C@@H](O)[C@H](O)[C@H]2O)[C@@H](O)[C@@H]1O [sucrose, reference compound] — lower, 4.59e−6 cm^2 · s^−1
- Bovine serum albumin — lower, 6.01e−7 cm^2 · s^−1
- Fibrinogen — lower, 1.98e−7 cm^2 · s^−1
- Myosin — lower, 1.10e−7 cm^2 · s^−1
- Tropomyosin — lower, 2.2e−7 cm^2 · s^−1
- lysozyme — lower, 1.04e−6 cm^2 · s^−1
